Data from doi:10.1101/2021.06.25.449899 (bioRxiv, 2021).

Target: the molecule itself
Experiment: SEC-MALS

B1: Mycobacterium tuberculosis transcription termination factor Rho, wild type (enzyme)
chain: TDTDLITAGESTDGKPSDAAATDPPDLNADEPAGSLATMVLPELRALANRAGVKGTSGMRKNELIAAIEEIRRQANGAPAVDRSAQEHDKGDRPPSSEAPATQGEQTPTEQIDSQSQQVRPERRSATREAGPSGSGERAGTAADDTDNRQGGQQDAKTEERGTDAGGDQGGDQQASGGQQARGDEDGEARQGRRGRRFRDRRRRGERSGDGAEAELREDDVVQPVAGILDVLDNYAFVRTSGYLPGPHDVYVSMNMVRKNGMRRGDAVTGAVRVPKEGEQPNQRQKFNPLVRLDSINGGSVEDAKKRPEFGKLTPLYPNQRLRLETSTERLTTRVIDLIMPIGKGQRALIVSPPKAGKTTILQDIANAITRNNPECHLMVVLVDERPEEVTDMQRSVKGEVIASTFDRPPSDHTSVAELAIERAKRLVEQGKDVVVLLDSITRLGRAYNNASPASGRILSGGVDSTALYPPKRFLGAARNIEEGGSLTIIATAMVETGSTGDTVIFEEFKGTGNAELKLDRKIAERRVFPAVDVNPSGTRKDELLLSPDEFAIVHKLRRVLSGLDSHQAIDLLMSQLRKTKNNYEFLVQVSKTTPGSMDSD
stoichiometry N: 6
